Test results taken from patent US20120077957A1 (PALATIN TECHNOLOGIES, published 2012).
Where two headings read alike, the source gives them in different places. Numbered stars: 1 amine (or outer) side, 2 acyl side, 3 side chain; on linkers, the order of the positions; unused ones are H or OH. Bridge positions count the residues as written; N and C are the ends. Square brackets hold non-standard residues; d marks the D form. * marks the point of attachment. Ser(Bzl) = O-benzyl-serine, O=C([C@H](COCc1ccccc1)N[*:1])[*:2]; Pro(trans-4-NH2) = O=C([C@@H]1C[C@@H](N[*:3])CN1[*:1])[*:2]; Met(O2) = CS(=O)(=O)CC[C@H](N)C(=O)O; Hyp = O=C(O)[C@@H]1C[C@@H](O)CN1; Cit = NC(=O)NCCC[C@H](N)C(=O)O; Orn = NCCC[C@H](N)C(=O)O; Dab = NCC[C@H](N)C(=O)O; NHcPr = C1CC1N*

What was measured:
[1] = biological target: T1, human melanocortin-4 receptor (recombinant hMC4-R) (human, UniProt P32245 1-332); assay: cell-based or functional assay
[2] = biological target: T1, human melanocortin-4 receptor …; assay: cell-based or functional assay; remark: listed apart in the source
[3] = biological target: T1, human melanocortin-4 receptor …; assay: competition with labelled NDP-α-MSH ([I125] or Eu), hMC4-R HEK-293 membranes
Procedure: After incubation for 60 minutes at 37° C., the assay mixture was filtered and the membranes washed three times with ice-cold buffer. Filters were dried and counted in a gamma counter for bound radioactivity. […] Maximal specific binding (100%) was defined as the difference in radioactivity (cpm) bound to cell membranes in the absence and presence of 1 μM NDP-α-MSH. […] Ki values for test peptides of the present invention were determined using Graph-Pad Prism® curve-fitting software.
After incubation for 90 minutes at 37° C., the reaction was stopped by filtration over AcroWell 96-well filter plates (Pall Life Sciences). The filter plates were washed 4 times with 200 μL of ice-cold phosphate-buffered saline. DELFIA Enhancement solution (PerkinElmer Life Sciences) was added to each well. The plates were incubated on a shaker for 15 minutes and read at 340 nm excitation and 615 nm emission wavelengths. Each assay was conducted in duplicate and mean values were utilized. Ki values were determined by curve-fitting with Graph-Pad Prism® software using a one-site fixed-slope competition binding model.

T1 sequence (P32245 whole entry): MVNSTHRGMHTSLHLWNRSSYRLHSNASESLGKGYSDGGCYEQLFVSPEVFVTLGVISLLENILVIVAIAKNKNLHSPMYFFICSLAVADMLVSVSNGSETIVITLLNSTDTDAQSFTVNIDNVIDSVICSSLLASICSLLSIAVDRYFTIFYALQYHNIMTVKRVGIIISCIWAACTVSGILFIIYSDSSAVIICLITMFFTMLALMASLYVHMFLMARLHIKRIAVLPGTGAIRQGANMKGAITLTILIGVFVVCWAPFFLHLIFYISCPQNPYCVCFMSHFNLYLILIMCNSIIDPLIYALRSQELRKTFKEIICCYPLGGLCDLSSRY

Binder	Ec50 (nM), cAMP [1] [nM]	Emax (%), cAMP [1] [%]	Ec50 (nM), cAMP [2] [nM]	Emax (%), cAMP [2] [%]	Ki [3] [nM]
Ac-RD[Dab][dF]RWK-OH (lactam 2-7) [Asp...Lys analog of peptides No. 5 and No. 42: Ac-Arg-cyclo(Asp-Dab-D-Phe-Arg-Trp-Lys)-OH]	4	91	4	91	–
Ac-RDH[dF]RWK-OH (lactam 2-7) [Asp...Lys analog of peptides No. 3 and No. 37: Ac-Arg-cyclo(Asp-His-D-Phe-Arg-Trp-Lys)-OH]	–	91	–	91	–
Ac-RDR[dF]RWK-OH (lactam 2-7) [Asp...Lys analog of peptide No. 9: Ac-Arg-cyclo(Asp-Arg-D-Phe-Arg-Trp-Lys)-OH]	–	75	–	–	–
Ac-RDR[dF]RWK-NH2 (lactam 2-7) [Asp...Lys analog of peptide No. 10: Ac-Arg-cyclo(Asp-Arg-D-Phe-Arg-Trp-Lys)-NH2]	–	68	–	–	–
Ac-RDQ[dF]RWK-OH (lactam 2-7, also called Peptide Structure (Asp...Lys) in the row of No. 11) [Asp...Lys analog of peptide No. 11: Ac-Arg-cyclo(Asp-Gln-D-Phe-Arg-Trp-Lys)-OH]	19	80	–	–	115
Ac-RD[Met(O2)][dF]RWK-NH2 (lactam 2-7, also called Peptide Structure (Asp...Lys) in the row of No. 13) [Asp...Lys analog of peptide No. 13: Ac-Arg-cyclo(Asp-Met(O2)-D-Phe-Arg-Trp-Lys)-NH2]	35	29	–	–	7
Ac-RD[Hyp][dF]RWK-NH2 (lactam 2-7, also called Peptide Structure (Asp...Lys) in the row of No. 14) [Asp...Lys analog of peptide No. 14: Ac-Arg-cyclo(Asp-Hyp-D-Phe-Arg-Trp-Lys)-NH2]	27	39	–	–	4
Ac-RDK[dF]RWK-NH2 (lactam 2-7, also called Peptide Structure (Asp...Lys) in the row of No. 16) [Asp...Lys analog of peptide No. 16: Ac-Arg-cyclo(Asp-Lys-D-Phe-Arg-Trp-Lys)-NH2]	–	97	–	–	30
Ac-RDQ[dF]RWK-NHcPr (lactam 2-7, also called Peptide Structure (Asp...Lys) in the row of No. 19) [Asp...Lys analog of peptide No. 19: Ac-Arg-cyclo(Asp-Gln-D-Phe-Arg-Trp-Lys)-NH-cycProp]	9	79	–	–	64
Ac-RDN[dF]RWK-OH (lactam 2-7, also called Peptide Structure (Asp...Lys) in the row of No. 20) [Asp...Lys analog of peptide No. 20: Ac-Arg-cyclo(Asp-Asn-D-Phe-Arg-Trp-Lys)-OH]	81	73	–	–	100
Ac-RD[Pro(trans-4-NH2)][dF]RWK-NH2 (lactam 2-7, also called Peptide Structure (Asp...Lys) in the row of No. 32) [Asp...Lys analog of peptide No. 32: Ac-Arg-cyclo(Asp-Pro(4R-NH2)-D-Phe-Arg-Trp-Lys)-NH2]	–	61	–	–	5
Ac-RDQ[dF]RWK-NH2 (lactam 2-7) [Asp...Lys analog of peptides No. 12 and No. 44: Ac-Arg-cyclo(Asp-Gln-D-Phe-Arg-Trp-Lys)-NH2]	17	85	17	85	–
Ac-RDH[dF]RWK-NH2 (lactam 2-7) [Asp...Lys analog of peptides No. 4 and No. 38: Ac-Arg-cyclo(Asp-His-D-Phe-Arg-Trp-Lys)-NH2]	–	83	–	83	–
Ac-[dR]DH[dF]RWK-NH2 (lactam 2-7) [Asp...Lys analog of peptide No. 39: Ac-D-Arg-cyclo(Asp-His-D-Phe-Arg-Trp-Lys)-NH2]	–	–	–	89	–
Ac-RD[Dab][dF]RWK-NH2 (lactam 2-7) [Asp...Lys analog of peptides No. 6 and No. 43: Ac-Arg-cyclo(Asp-Dab-D-Phe-Arg-Trp-Lys)-NH2]	0.3	91	0.3	91	–
Ac-RD[Orn][dF]RWK-OH (lactam 2-7) [Asp...Lys analog of peptide No. 7: Ac-Arg-cyclo(Asp-Orn-D-Phe-Arg-Trp-Lys)-OH]	12	84	–	–	–
Ac-RD[Orn][dF]RWK-NH2 (lactam 2-7) [Asp...Lys analog of peptide No. 8: Ac-Arg-cyclo(Asp-Orn-D-Phe-Arg-Trp-Lys)-NH2]	0.8	79	–	–	–
RDXFRWK (N-terminal acetyl; Cit (citrulline) at 3; D-Phe at 4; side-chain lactam Asp2-Lys7; C-terminal amide (-NH2)) [Asp...Lys analog of peptide No. 15: Ac-Arg-cyclo(Asp-Cit-D-Phe-Arg-Trp-Lys)-NH2]	–	69	–	–	–
Ac-RD[Orn](Ac)[dF]RWK-NH2 (lactam 2-7) [Asp...Lys analog of peptide No. 33: Ac-Arg-cyclo(Asp-Orn(Acetyl)-D-Phe-Arg-Trp-Lys)-NH2]	532	62	–	–	–
Ac-RD[Dab](Ac)[dF]RWK-NH2 (lactam 2-7; SMILES CC(=O)NCC[C@@H]1NC(=O)[C@@H](NC(=O)[C@H](CCCNC(=N)N)NC(C)=O)CC(=O)NCCCC[C@@H](C(N)=O)NC(=O)[C@H](Cc2c[nH]c3ccccc23)NC(=O)[C@H](CCCNC(=N)N)NC(=O)[C@@H](Cc2ccccc2)NC1=O) [Asp...Lys analog of peptide No. 18: Ac-Arg-cyclo(Asp-Dab(Acetyl)-D-Phe-Arg-Trp-Lys)-NH2]	–	69	–	–	–
Ac-DQ[dF]RWK-NH2 (lactam 1-6; SMILES CC(=O)N[C@H]1CC(=O)NCCCC[C@@H](C(N)=O)NC(=O)[C@H](Cc2c[nH]c3ccccc23)NC(=O)[C@H](CCCNC(=N)N)NC(=O)[C@@H](Cc2ccccc2)NC(=O)[C@H](CCC(N)=O)NC1=O, also called Peptide Structure (Asp...Lys) in the row of No. 21) [Asp...Lys analog of peptide No. 21: Ac-cyclo(Asp-Gln-D-Phe-Arg-Trp-Lys)-NH2]	148	35	–	–	99
XEHFRWX (N-terminal acetyl; Nle at 1; D-Phe at 4; Orn at 7; side-chain lactam Glu2-Orn7; C-terminal -OH) [Peptide No. 1: Ac-Nle-cyclo(Glu-His-D-Phe-Arg-Trp-Orn)-OH]	0.5	97	–	–	–
XEHFRWX (N-terminal acetyl; Nle at 1; D-Phe at 4; Orn at 7; side-chain lactam Glu2-Orn7; C-terminal amide (-NH2)) [Peptide No. 2: Ac-Nle-cyclo(Glu-His-D-Phe-Arg-Trp-Orn)-NH2]	0.1	93	–	–	0.1
Ac-REQ[dF]RW[Orn]-OH (lactam 2-7) [Peptide No. 11: Ac-Arg-cyclo(Glu-Gln-D-Phe-Arg-Trp-Orn)-OH]	–	81	–	–	–
Ac-REH[dF]RW[Orn]-OH (lactam 2-7) [Peptide No. 3: Ac-Arg-cyclo(Glu-His-D-Phe-Arg-Trp-Orn)-OH]	0.7	83	–	–	24
Ac-REH[dF]RW[Orn]-NH2 (lactam 2-7) [Peptide No. 4: Ac-Arg-cyclo(Glu-His-D-Phe-Arg-Trp-Orn)-NH2]	0.2	83	–	–	1
Ac-RE[Dab][dF]RW[Orn]-OH (lactam 2-7) [Peptide No. 5: Ac-Arg-cyclo(Glu-Dab-D-Phe-Arg-Trp-Orn)-OH]	–	94	–	–	–
Ac-RE[Dab][dF]RW[Orn]-NH2 (lactam 2-7) [Peptide No. 6: Ac-Arg-cyclo(Glu-Dab-D-Phe-Arg-Trp-Orn)-NH2]	0.3	94	–	–	–
Ac-RE[Orn][dF]RW[Orn]-OH (lactam 2-7) [Peptide No. 7: Ac-Arg-cyclo(Glu-Orn-D-Phe-Arg-Trp-Orn)-OH]	–	92	–	–	–

Next, values leading:

Ec50 (nM), cAMP [1] [nM]	Emax (%), cAMP [1] [%]	Ec50 (nM), cAMP [2] [nM]	Emax (%), cAMP [2] [%]	Ki [3] [nM]	Binder
–	–	–	89	–	Ac-[dR][Orn]Q[dF]RWE-NH2 (lactam 2-7) [Peptide No. 45: Ac-D-Arg-cyclo(Orn-Gln-D-Phe-Arg-Trp-Glu)-NH2]
–	–	–	100	–	Ac-R[Orn][Dab][dF]RWE-OH (lactam 2-7) [Peptide No. 42: Ac-Arg-cyclo(Orn-Dab-D-Phe-Arg-Trp-Glu)-OH]
–	82	–	–	–	Ac-RER[dF]RW[Orn]-OH (lactam 2-7) [Peptide No. 9: Ac-Arg-cyclo(Glu-Arg-D-Phe-Arg-Trp-Orn)-OH]
–	98	–	–	–	Ac-RER[dF]RW[Orn]-NH2 (lactam 2-7) [Peptide No. 10: Ac-Arg-cyclo(Glu-Arg-D-Phe-Arg-Trp-Orn)-NH2]
5	71	–	–	–	Ac-RE[Met(O2)][dF]RW[Orn]-NH2 (lactam 2-7) [Peptide No. 13: Ac-Arg-cyclo(Glu-Met(O2)-D-Phe-Arg-Trp-Orn)-NH2]
–	104	–	–	–	Ac-RE[Hyp][dF]RW[Orn]-NH2 (lactam 2-7) [Peptide No. 14: Ac-Arg-cyclo(Glu-Hyp-D-Phe-Arg-Trp-Orn)-NH2]
–	104	–	–	15	Ac-REK[dF]RW[Orn]-NH2 (lactam 2-7) [Peptide No. 16: Ac-Arg-cyclo(Glu-Lys-D-Phe-Arg-Trp-Orn)-NH2]
–	55	–	–	6	Ac-RE[Ser(Bzl)][dF]RW[Orn]-OH (lactam 2-7) [Peptide No. 17: Ac-Arg-cyclo(Glu-Ser(Bzl)-D-Phe-Arg-Trp-Orn)-OH]
12	76	–	–	167	Ac-REN[dF]RW[Orn]-OH (lactam 2-7) [Peptide No. 20: Ac-Arg-cyclo(Glu-Asn-D-Phe-Arg-Trp-Orn)-OH]
–	55	–	–	6	Ac-RE[Pro(trans-4-NH2)][dF]RW[Orn]-NH2 (lactam 2-7) [Peptide No. 32: Ac-Arg-cyclo(Glu-Pro(4R-NH2)-D-Phe-Arg-Trp-Orn)-NH2]
0.4	91	–	–	6	Ac-REN[dF]RW[Orn]-NH2 (lactam 2-7) [Peptide No. 34: Ac-Arg-cyclo(Glu-Asn-D-Phe-Arg-Trp-Orn)-NH2]
0.4	95	–	–	9	Ac-RE[Orn][dF]RW[Orn]-NH2 (lactam 2-7) [Peptide No. 8: Ac-Arg-cyclo(Glu-Orn-D-Phe-Arg-Trp-Orn)-NH2]
–	96	–	–	–	Ac-REQ[dF]RW[Orn]-NH2 (lactam 2-7) [Peptide No. 12: Ac-Arg-cyclo(Glu-Gln-D-Phe-Arg-Trp-Orn)-NH2]
–	87	–	–	–	Ac-RE[Cit][dF]RW[Orn]-NH2 (lactam 2-7) [Peptide No. 15: Ac-Arg-cyclo(Glu-Cit-D-Phe-Arg-Trp-Orn)-NH2]
–	75	–	–	–	Ac-RE[Dab](Ac)[dF]RW[Orn]-NH2 (lactam 2-7) [Peptide No. 18: Ac-Arg-cyclo(Glu-Dab(Acetyl)-D-Phe-Arg-Trp-Orn)-NH2]
–	91	–	–	–	Ac-REQ[dF]RW[Orn]-NHcPr (lactam 2-7) [Peptide No. 19: Ac-Arg-cyclo(Glu-Gln-D-Phe-Arg-Trp-Orn)-NH-cycProp]
